From US20120053125A1 come the findings set out here.

Positions count from the first letter of the chain named. Names may count otherwise.

The target in experiment [1] is Protein Phosphatase-1 (PP1), purified catalytic subunit (New England BioLabs) (UniProt P62139). Nature of the experiment: cell-based or functional assay.
The target of experiment [2] is endogenous type-1 protein phosphatase (PP1) of adult rat cardiomyocyte lysates (rat). Kind of experiment: cell-based or functional assay.

Protein Phosphatase-1 (PP1), purified catalytic subunit (New England BioLabs), sequence (P62139 whole entry): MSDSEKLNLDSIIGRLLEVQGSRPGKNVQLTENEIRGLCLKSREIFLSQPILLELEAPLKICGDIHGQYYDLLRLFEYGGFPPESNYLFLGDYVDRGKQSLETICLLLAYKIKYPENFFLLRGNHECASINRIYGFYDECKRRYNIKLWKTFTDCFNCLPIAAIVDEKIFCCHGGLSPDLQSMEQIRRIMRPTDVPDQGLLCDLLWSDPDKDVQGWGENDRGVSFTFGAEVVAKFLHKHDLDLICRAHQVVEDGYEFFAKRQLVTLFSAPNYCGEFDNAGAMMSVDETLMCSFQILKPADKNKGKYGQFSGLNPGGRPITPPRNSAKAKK

B1: PKA-phosphorylated human I-1 wild type (protein)
chain: MEQDNSPRKIQFTVPLLEPHLDPEAAEQIRRRRPTPATLVLTSDQSSPEIDEDRIPNPHLKSTLAMSPRQRKKMTRITPTMKELQMMVEHHLGQQQQGEEPEGAAESTGTQESRPPGIPDTEVESRLGTSGTAKKTAECIPKTHERGSKEPSTKEPSTHIPPLDSKGANSV
modifications: phosphothreonine at Thr-35 (phosphorylated in vitro by PKA)
B1 returned an IC50 of inhibition of PP1 activity (dephosphorylation of 32P-MyBP) in experiment [1] of 3.2 nM.

B2: human I-1 (S67A) phosphorylated by PKC-α (protein)
chain: B1 chain with S67A
modifications: phosphothreonine at Thr-75 (phosphorylated in vitro by PKC-α; 0.35 mol Pi/mol protein)
With B2, in experiment [1], the increase of purified PP1c activity compared to I-1 wild-type was 25%.

B3: human I-1 (S67D) (protein)
chain: B1 chain with S67D
In the case of B3, the PP1 activity remaining after PKA stimulation in infected rat cardiomyocytes in experiment [2] turned out to be 2 fold.

B4: human I-1 wild type phosphorylated first by PKC-α and then by PKA (protein)
chain: B1 chain
modifications: phosphothreonine at Thr-35 (PKA); phosphoserine at Ser-67 and phosphothreonine at Thr-75 (PKC-α)
As to B4, the IC50 of inhibition of PP1 activity (dephosphorylation of 32P-MyBP) in experiment [1] is 4.9 nM.

B5: human I-1 (T75D) (protein)
chain: B1 chain with T75D
Molecule B5 gave an increase of purified PP1c activity compared to I-1 wild-type in experiment [1] of 23%. In experiment [2], this molecule registered a PP1 activity remaining after PKA stimulation in infected rat cardiomyocytes of 2 fold; an increase in type-1 phosphatase activity in infected rat cardiomyocyte lysates compared to Ad.I-1WT and Ad.GFP of 27%.

B6: human I-1 (S67D/T75D) (protein)
chain: B1 chain with S67D, T75D
As to B6, the PP1 activity remaining after PKA stimulation in infected rat cardiomyocytes in experiment [2] amounted to 2 fold.
